Experimental findings from patent US20230122364A1 (VANDERBILT UNIVERSITY, published 2023) are described below.

The target in experiment [1] is T1, prefusion conformation-stabilized SARS-CoV-2 spike ectodomain (S2Pecto) protein (SARS-CoV-2, UniProt P0DTC2 14-1213; P10104 458-484). The experiment is described as follows: ELISA on coated S2Pecto.
Experiment [2] concerns the target T1, prefusion conformation-stabilized …. The experiment is described as follows: competition ELISA on coated S2Pecto; hACE2-FLAG binding inhibited. (An ELISA detects its analyte on a solid surface through an enzyme-linked reagent.)
Experiment [3] shares this target. In words: ELISA, purified IgG.

The EC50 is the concentration needed to bring the measured effect to its halfway point. Low values mean a more potent agent, high ones a less potent agent. For orientation: IC50 means the concentration needed to halve the response being measured. A low value points to greater potency in that assay.

B1: COV2-2113 (antibody, V domains shown)
VH: EVQLVESGGGLIQPGGSLRLSCAASEVTVSSNYMSWVRQAPGKGLEWVSLIYSGGTTYYADSVKGRFTISRDNSKNTLYLQMNSLRAEDTAVYYCARDFLRWHDLWGQGTLVTVSS
VL: DIQMTQSPSSLSASVGDRVTITCQASQDINNYLNWYQQKPGKAPKLLIYDASNLETGVPLRFSGSGSGTDFIFTISSLQPEDIATYYCQQYDNLPPVFGGGTKVEIK
B1: in experiment [1], the EC50 was 0.0018 µg/mL. In addition, in experiment [2], the IC50 amounted to 0.06 µg/mL. Also, the “OD 450 nm” value in experiment [3] was 4.4 OD 450 nm.

B2: COV2-2132 (antibody, V domains shown)
VH: EVQLVESGGGLIQPGGSLRLSCAASEVTVSSNYMSWVRQAPGKGLEWVSLIYSGGTTYYADSVKGRFTISRDNSKNTLYLQMNSLRAEDTAVYYCARDFLRWHDLWGQGTLVTVSS
VL: DIQMTQSPSSLSASVGDRVTITCQASQDINNYLNWYQQKPGKAPKLLIYDASNLETGVPLRFSGSGSGTDFTFTISSLQPEDIATYYCQQYDNLPPVFGGGTKVEIK
Consider B2, for which the “OD 450 nm” value in experiment [3] worked out at 4.4 OD 450 nm.

B3: COV2-2050 (antibody, V domains shown)
VH: QVQLVQSGAEVKKPGASVKVSCKASGYTFTDYYMHWVRQAPGQGLEWMGWINPNSRGTNYAQKFQGRVTMTRDTSISTVYMELSRLTSDDTAVYYCARVVVLGYGRPNNYYDGRNVWDYWGQGTLVTVSS
VL: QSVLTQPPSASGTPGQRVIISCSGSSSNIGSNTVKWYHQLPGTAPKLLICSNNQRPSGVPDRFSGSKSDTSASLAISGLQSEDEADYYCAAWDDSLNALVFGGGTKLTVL
B3 displayed an EC50 in experiment [1] of 0.0017 µg/mL. Further, the IC50 in experiment [2] was found to be 0.063 µg/mL. Moreover, the “OD 450 nm” value in experiment [3] turned out to be 4.3 OD 450 nm.

B4: COV2-2068 (antibody, V domains shown)
VH: EVQLVESGGGLVQPGGSLRLSCAASGFTVSSNYMSWVRQAPGKGLEWVSVIYPGGSAFYADSVKGRFTISRHNSNNTLCLQMNSLRTEDTAVYYCARSYDILTGYRDAFDIWGQGTMVTVSS
VL: QSVLTQPPSVSGAPGQRVTISCTGSSSNIGSGSDVHWYQQLPGTAPKLLIYGNTNRPSGVPDRFSGSKSGTSASLAITGLQAEDEADYYCQSYDSRLSGFVVFGGGTKLTVL
With B4, the EC50 in experiment [1] worked out at 0.0074 µg/mL. Besides, the IC50 in experiment [2] came out at 0.166 µg/mL. Further, the “OD 450 nm” value in experiment [3] is 4.3 OD 450 nm.

B5: COV2-2082 (antibody, V domains shown)
VH: EVQLVESGGGVVRPGGSLRLSCAASGFIFDDYDMTWVRQAPGKGLEWVSGISWNGGNTGYADSVKGRFTISRDNAKNSLYLQMNSLRAEDTALYHCAVIMSPIPRYSGYDWAGGAFDIWGQGTMVTVSS
VL: SSELTQDPAVSVALGQTVRITCQGDSLRSYYASWYQQKPGQVPILVIYDKNNRPSGIPDRFSGSSSGNTASLTITGAQAEDEADYYCNSRDSSGNAVVFGGGTKLTVL
Molecule B5 yielded a concentration for a half-maximal effect (EC50) in experiment [1] of 0.0011 µg/mL. This molecule also came in with an IC50 in experiment [2] of 0.043 µg/mL. The “OD 450 nm” value in experiment [3] was 4.3 OD 450 nm.

B6: COV2-2098 (antibody, V domains shown)
VH: EVQLLESGGGLIQPGGSLRLSCAASGFTFSNYAMSWVRQAPGKGLEWVSGIISTSGGATYNADSVRGRFTTSRDNSKNILYLQMNSLRGEDTAVYYCVKGLFDWFPLWGQGTMVTVSS
VL: DIVMTQSPATLSVSPGERAILSCRASQSVRSNLAWYQQKPGQAPRLLISGASTRATAIPARFSGSGSGTEFTLTITSLQSEDCAVYYCHQYNNWPQTFGQGTKVEIK
Molecule B6 gave a concentration for a half-maximal effect (EC50) in experiment [1] of 0.0013 µg/mL. In experiment [2], the IC50 came to 0.048 µg/mL. Besides, the “OD 450 nm” value in experiment [3] came out at 4.3 OD 450 nm.

B7: COV2-2046 (antibody, V domains shown)
VH: EVQLVESGGGLVQPGRSLRLSCAASGFTFDDYAMHWVRQAPGKGLEWVSGISWNSGSIAYTDSVKGRFTISRDNAKNSLYLQMNSLRAEDTALYYCAKAHSTGHQYYYGMDVWGQGTTVTVSS
VL: DIQMTQSPSSLSASVGDRVTITCRASQSISSFLNWYQQKPGKAPKLLIYAAFNLQSGVPSRFSGSGSGTDFTLTISSLQSEDFATYYCQQSYNTPYTFGQGTKLEIK
Take B7: the “OD 450 nm” value in experiment [3] is 4.3 OD 450 nm.

B8: COV2-2103 (antibody, V domains shown)
VH: EVQLVESGGGLVQPGGSLRLSCAASGFTFSRHWMTWVRQAPGKGLEWVANIKQDGSEKYYVDSVKGRLTISRDNAKNSLYLQMNSLRAEDTAVYYCARLGFYYGGADYWGQGTLVTVSS
VL: NFMLTQPHSVSESPGKTVTISCTGSSGSIASNYVQWYQQRPGSAPTTVISEDNQRPSGVPDRFSGSIDSSSNSASLTISGLKTEDEADYYCQSYDGINRAWVFGGGTKLTVL
In the case of B8, the EC50 in experiment [1] stood at 0.0029 µg/mL. The same molecule returned an IC50 in experiment [2] of 0.079 µg/mL. Besides, the “OD 450 nm” value in experiment [3] was 4.3 OD 450 nm.

B9: COV2-2961 (antibody, V domains shown)
VH: EVQLVQSGPEVKKPGTSVKVSCKASGFTFMSSAVQWVRQARGQRLEWIGWIVIGSGNTNYAQKFQERVTITRDMSTSTAYMELSSLRSEDTAVYYCAAPYCSSISCNDGFDIWGQGTMVTVSS
VL: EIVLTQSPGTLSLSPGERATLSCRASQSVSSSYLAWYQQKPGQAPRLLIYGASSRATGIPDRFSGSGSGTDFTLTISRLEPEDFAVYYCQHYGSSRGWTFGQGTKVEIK
Consider B9, for which the “OD 450 nm” value in experiment [3] worked out at 3.6 OD 450 nm.
